Measurements from patent US7585511.

How the values were obtained:
[1] = target: N-terminal His-tagged version of serum resistance associated protein (SRA) (aa 1-251), wild type (Trypanosoma brucei rhodesiense); test: pull-down of in vitro synthesized [35S]-apoL-I mutant with His-SRA on Ni-NTA beads, scintillation counting
[2] = target: I58Q/I62Q serum resistance associated protein (SRA), His-tagged (Trypanosoma brucei rhodesiense); test: pull-down of in vitro synthesized [35S]-apoL-I with mutant His-SRA on Ni-NTA beads, scintillation counting

Substance	binding (%) [1]	binding (%) [2]
[35S]-apoL-I L345Y/L352A/Y354L point mutant, with C-terminal V5 tag (from UniProt O14791 16-398)	67%	
[35S]-apoL-I truncated version ending at aa 342, with C-terminal V5 tag (from UniProt O14791 28-342)	5%	
[35S]-apoL-I truncated version ending at aa 355, with C-terminal V5 tag (from UniProt O14791 28-355)	24%	
in vitro synthesized [35S]-apoL-I, wild type, with C-terminal V5 tag (from UniProt O14791 16-398)		50%
